The results in this text go back to US20190298769A1.

For the assay, the target named is 4-1BB receptor on Jurkat cells that over express 4-1BB/NFκB/Luc (UniProt Q07011). Put plainly: cell-based or functional assay.
Sequence of UniProt Q07011 (Q07011 24-255 limits assumed): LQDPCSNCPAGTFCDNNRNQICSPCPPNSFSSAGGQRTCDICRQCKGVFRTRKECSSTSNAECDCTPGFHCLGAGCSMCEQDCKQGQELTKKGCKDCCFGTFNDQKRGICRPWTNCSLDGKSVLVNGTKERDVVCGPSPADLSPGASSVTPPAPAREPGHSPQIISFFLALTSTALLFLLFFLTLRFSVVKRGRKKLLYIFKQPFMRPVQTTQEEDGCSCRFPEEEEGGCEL

Substance “4-1BBL construct (human extracellular 4-1BBL - 4-1BBL linker - GPA) on the surface of engineered erythroid cells (ligand)” had an NFκB activation (luciferase activity of Jurkat cells that over express 4-1BB/NFκB/Luc) of 80 to 100 fold and an NFκB activation relative to the agonistic 4-1BB monoclonal antibody of 15 fold.
